In US20160272683A1 (Novo Nordisk, published 2016):
Numbered stars: 1 amine (or outer) side, 2 acyl side, 3 side chain; on linkers, the order of the positions; unused ones are H or OH. * marks the point of attachment. C20 diacid = O=C(O)CCCCCCCCCCCCCCCCCCC(=O)*; C18 diacid = O=C(O)CCCCCCCCCCCCCCCCC(=O)*; γGlu = O=C(O)[C@H](CCC(=O)[*:2])N[*:1]

T1: human calcitonin receptor (human, UniProt P30988 25-474)
T1 sequence (looked up): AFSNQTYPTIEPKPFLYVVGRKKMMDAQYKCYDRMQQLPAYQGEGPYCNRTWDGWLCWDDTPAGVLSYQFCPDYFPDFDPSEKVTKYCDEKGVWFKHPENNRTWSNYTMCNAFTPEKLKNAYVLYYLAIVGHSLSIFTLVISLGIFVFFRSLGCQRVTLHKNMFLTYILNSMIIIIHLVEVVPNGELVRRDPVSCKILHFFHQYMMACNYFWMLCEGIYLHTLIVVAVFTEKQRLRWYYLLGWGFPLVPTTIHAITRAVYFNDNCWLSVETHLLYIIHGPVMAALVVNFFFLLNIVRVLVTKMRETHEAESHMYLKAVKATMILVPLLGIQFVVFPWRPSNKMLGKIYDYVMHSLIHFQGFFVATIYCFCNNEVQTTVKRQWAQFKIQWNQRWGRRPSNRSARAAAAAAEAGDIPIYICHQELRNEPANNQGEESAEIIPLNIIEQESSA

T2: human amylin 3(a) receptor (human calcitonin receptor co-expressed with RAMP-3) (human, UniProt P30988 25-474; O60896 24-148, limits assumed)
T2 sequence (looked up) 1: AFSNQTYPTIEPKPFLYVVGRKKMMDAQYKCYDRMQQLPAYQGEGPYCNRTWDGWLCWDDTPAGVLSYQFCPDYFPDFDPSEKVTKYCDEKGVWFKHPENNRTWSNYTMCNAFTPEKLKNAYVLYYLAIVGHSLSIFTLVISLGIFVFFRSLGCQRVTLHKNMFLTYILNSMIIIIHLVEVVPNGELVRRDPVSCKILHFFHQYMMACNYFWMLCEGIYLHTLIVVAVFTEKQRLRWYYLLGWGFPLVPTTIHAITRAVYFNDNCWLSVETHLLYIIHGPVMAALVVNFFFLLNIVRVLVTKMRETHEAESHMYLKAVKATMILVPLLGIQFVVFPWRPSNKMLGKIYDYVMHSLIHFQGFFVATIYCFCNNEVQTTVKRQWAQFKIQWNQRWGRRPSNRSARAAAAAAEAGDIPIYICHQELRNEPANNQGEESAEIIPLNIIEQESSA
T2 sequence (looked up) 2: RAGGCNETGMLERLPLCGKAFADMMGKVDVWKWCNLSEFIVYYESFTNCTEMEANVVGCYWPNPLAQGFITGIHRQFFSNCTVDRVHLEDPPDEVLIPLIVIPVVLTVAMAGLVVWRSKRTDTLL


Legend:
[1] = target: T1, human calcitonin receptor; experiment: cell-based or functional assay
[2] = target: T2, human amylin 3(a) receptor (human …); experiment: cell-based or functional assay

Binder	hCTR funct. EC50 (pM) [1]	hAmylin-R funct. EC50 (pM) [2]
{C20 diacid-γGlu}-ASQLSTAVLGRLSQELHELQTYPRTETGSQTY-NH2 (SMILES CC(C)C[C@H](NC(=O)[C@H](CCCNC(=N)N)NC(=O)CNC(=O)[C@H](CC(C)C)NC(=O)[C@@H](NC(=O)[C@H](C)NC(=O)[C@@H](NC(=O)[C@H](CO)NC(=O)[C@H](CC(C)C)NC(=O)[C@H](CCC(N)=O)NC(=O)[C@H](CO)NC(=O)[C@H](C)NC(=O)CC[C@H](NC(=O)CCCCCCCCCCCCCCCCCCC(=O)O)C(=O)O)[C@@H](C)O)C(C)C)C(=O)N[C@@H](CO)C(=O)N[C@@H](CCC(N)=O)C(=O)N[C@@H](CCC(=O)O)C(=O)N[C@@H](CC(C)C)C(=O)N[C@@H](Cc1c[nH]cn1)C(=O)N[C@@H](CCC(=O)O)C(=O)N[C@@H](CC(C)C)C(=O)N[C@@H](CCC(N)=O)C(=O)N[C@H](C(=O)N[C@@H](Cc1ccc(O)cc1)C(=O)N1CCC[C@H]1C(=O)N[C@@H](CCCNC(=N)N)C(=O)N[C@H](C(=O)N[C@@H](CCC(=O)O)C(=O)N[C@H](C(=O)NCC(=O)N[C@@H](CO)C(=O)N[C@@H](CCC(N)=O)C(=O)N[C@H](C(=O)N[C@@H](Cc1ccc(O)cc1)C(N)=O)[C@@H](C)O)[C@@H](C)O)[C@@H](C)O)[C@@H](C)O) [[N-terminal(C20 diacid-gGlu), des1, 4Q, 9V, 15Q, 21Q, 23Y, 30S, 31Q, 32T, 33Y]mimylin]	63 pM	62 pM
{C20 diacid-γGlu}-ASGLSTAVLGRLSQELHELQTYPRTETGSQTY-NH2 (SMILES CC(C)C[C@H](NC(=O)CNC(=O)[C@H](CO)NC(=O)[C@H](C)NC(=O)CC[C@H](NC(=O)CCCCCCCCCCCCCCCCCCC(=O)O)C(=O)O)C(=O)N[C@@H](CO)C(=O)N[C@H](C(=O)N[C@@H](C)C(=O)N[C@H](C(=O)N[C@@H](CC(C)C)C(=O)NCC(=O)N[C@@H](CCCNC(=N)N)C(=O)N[C@@H](CC(C)C)C(=O)N[C@@H](CO)C(=O)N[C@@H](CCC(N)=O)C(=O)N[C@@H](CCC(=O)O)C(=O)N[C@@H](CC(C)C)C(=O)N[C@@H](Cc1c[nH]cn1)C(=O)N[C@@H](CCC(=O)O)C(=O)N[C@@H](CC(C)C)C(=O)N[C@@H](CCC(N)=O)C(=O)N[C@H](C(=O)N[C@@H](Cc1ccc(O)cc1)C(=O)N1CCC[C@H]1C(=O)N[C@@H](CCCNC(=N)N)C(=O)N[C@H](C(=O)N[C@@H](CCC(=O)O)C(=O)N[C@H](C(=O)NCC(=O)N[C@@H](CO)C(=O)N[C@@H](CCC(N)=O)C(=O)N[C@H](C(=O)N[C@@H](Cc1ccc(O)cc1)C(N)=O)[C@@H](C)O)[C@@H](C)O)[C@@H](C)O)[C@@H](C)O)C(C)C)[C@@H](C)O) [[N-terminal(C20 diacid-gGlu), des1, 4G, 9V, 15Q, 21Q, 23Y, 30S, 31Q, 32T, 33Y]mimylin]	49 pM	72 pM
{C18 diacid}-EASELSTAALGRLSAEIHELATLPRTETGPESP-NH2 (SMILES CC[C@H](C)[C@H](NC(=O)[C@H](CCC(=O)O)NC(=O)[C@H](C)NC(=O)[C@H](CO)NC(=O)[C@H](CC(C)C)NC(=O)[C@H](CCCNC(=N)N)NC(=O)CNC(=O)[C@H](CC(C)C)NC(=O)[C@H](C)NC(=O)[C@H](C)NC(=O)[C@@H](NC(=O)[C@H](CO)NC(=O)[C@H](CC(C)C)NC(=O)[C@H](CCC(=O)O)NC(=O)[C@H](CO)NC(=O)[C@H](C)NC(=O)[C@H](CCC(=O)O)NC(=O)CCCCCCCCCCCCCCCCC(=O)O)[C@@H](C)O)C(=O)N[C@@H](Cc1c[nH]cn1)C(=O)N[C@@H](CCC(=O)O)C(=O)N[C@@H](CC(C)C)C(=O)N[C@@H](C)C(=O)N[C@H](C(=O)N[C@@H](CC(C)C)C(=O)N1CCC[C@H]1C(=O)N[C@@H](CCCNC(=N)N)C(=O)N[C@H](C(=O)N[C@@H](CCC(=O)O)C(=O)N[C@H](C(=O)NCC(=O)N1CCC[C@H]1C(=O)N[C@@H](CCC(=O)O)C(=O)N[C@@H](CO)C(=O)N1CCC[C@H]1C(N)=O)[C@@H](C)O)[C@@H](C)O)[C@@H](C)O) [[N-terminal(C18 diacid), 17I]mimylin]	5 pM	7 pM
{C20 diacid-γGlu}-ASGLSTAVLGRLSQELHELQTYPRTETGSGTY-NH2 (SMILES CC(C)C[C@H](NC(=O)CNC(=O)[C@H](CO)NC(=O)[C@H](C)NC(=O)CC[C@H](NC(=O)CCCCCCCCCCCCCCCCCCC(=O)O)C(=O)O)C(=O)N[C@@H](CO)C(=O)N[C@H](C(=O)N[C@@H](C)C(=O)N[C@H](C(=O)N[C@@H](CC(C)C)C(=O)NCC(=O)N[C@@H](CCCNC(=N)N)C(=O)N[C@@H](CC(C)C)C(=O)N[C@@H](CO)C(=O)N[C@@H](CCC(N)=O)C(=O)N[C@@H](CCC(=O)O)C(=O)N[C@@H](CC(C)C)C(=O)N[C@@H](Cc1c[nH]cn1)C(=O)N[C@@H](CCC(=O)O)C(=O)N[C@@H](CC(C)C)C(=O)N[C@@H](CCC(N)=O)C(=O)N[C@H](C(=O)N[C@@H](Cc1ccc(O)cc1)C(=O)N1CCC[C@H]1C(=O)N[C@@H](CCCNC(=N)N)C(=O)N[C@H](C(=O)N[C@@H](CCC(=O)O)C(=O)N[C@H](C(=O)NCC(=O)N[C@@H](CO)C(=O)NCC(=O)N[C@H](C(=O)N[C@@H](Cc1ccc(O)cc1)C(N)=O)[C@@H](C)O)[C@@H](C)O)[C@@H](C)O)[C@@H](C)O)C(C)C)[C@@H](C)O) [[N-terminal(C20 diacid-gGlu), des1, 4G, 9V, 15Q, 21Q, 23Y, 30S, 31G, 32T, 33Y]mimylin]	65 pM	57 pM
{C20 diacid-γGlu}-ASGLSTAALGRLSQELHELQTYPHTETGSGTY-NH2 (SMILES CC(C)C[C@H](NC(=O)CNC(=O)[C@H](CO)NC(=O)[C@H](C)NC(=O)CC[C@H](NC(=O)CCCCCCCCCCCCCCCCCCC(=O)O)C(=O)O)C(=O)N[C@@H](CO)C(=O)N[C@H](C(=O)N[C@@H](C)C(=O)N[C@@H](C)C(=O)N[C@@H](CC(C)C)C(=O)NCC(=O)N[C@@H](CCCNC(=N)N)C(=O)N[C@@H](CC(C)C)C(=O)N[C@@H](CO)C(=O)N[C@@H](CCC(N)=O)C(=O)N[C@@H](CCC(=O)O)C(=O)N[C@@H](CC(C)C)C(=O)N[C@@H](Cc1c[nH]cn1)C(=O)N[C@@H](CCC(=O)O)C(=O)N[C@@H](CC(C)C)C(=O)N[C@@H](CCC(N)=O)C(=O)N[C@H](C(=O)N[C@@H](Cc1ccc(O)cc1)C(=O)N1CCC[C@H]1C(=O)N[C@@H](Cc1c[nH]cn1)C(=O)N[C@H](C(=O)N[C@@H](CCC(=O)O)C(=O)N[C@H](C(=O)NCC(=O)N[C@@H](CO)C(=O)NCC(=O)N[C@H](C(=O)N[C@@H](Cc1ccc(O)cc1)C(N)=O)[C@@H](C)O)[C@@H](C)O)[C@@H](C)O)[C@@H](C)O)[C@@H](C)O) [[N-terminal(C20 diacid-gGlu), des1, 4G, 15Q, 21Q, 23Y, 25H, 30S, 31G, 32T, 33Y]mimylin]	27 pM	41 pM
{C20 diacid-γGlu}-EASQLSTAVLGRLSQELHELQTYPRTGTGSGTY-NH2 (SMILES CC(C)C[C@H](NC(=O)[C@H](CCCNC(=N)N)NC(=O)CNC(=O)[C@H](CC(C)C)NC(=O)[C@@H](NC(=O)[C@H](C)NC(=O)[C@@H](NC(=O)[C@H](CO)NC(=O)[C@H](CC(C)C)NC(=O)[C@H](CCC(N)=O)NC(=O)[C@H](CO)NC(=O)[C@H](C)NC(=O)[C@H](CCC(=O)O)NC(=O)CC[C@H](NC(=O)CCCCCCCCCCCCCCCCCCC(=O)O)C(=O)O)[C@@H](C)O)C(C)C)C(=O)N[C@@H](CO)C(=O)N[C@@H](CCC(N)=O)C(=O)N[C@@H](CCC(=O)O)C(=O)N[C@@H](CC(C)C)C(=O)N[C@@H](Cc1c[nH]cn1)C(=O)N[C@@H](CCC(=O)O)C(=O)N[C@@H](CC(C)C)C(=O)N[C@@H](CCC(N)=O)C(=O)N[C@H](C(=O)N[C@@H](Cc1ccc(O)cc1)C(=O)N1CCC[C@H]1C(=O)N[C@@H](CCCNC(=N)N)C(=O)N[C@H](C(=O)NCC(=O)N[C@H](C(=O)NCC(=O)N[C@@H](CO)C(=O)NCC(=O)N[C@H](C(=O)N[C@@H](Cc1ccc(O)cc1)C(N)=O)[C@@H](C)O)[C@@H](C)O)[C@@H](C)O)[C@@H](C)O) [[N-terminal(C20 diacid-gGlu), 4Q, 9V, 15Q, 21Q, 23Y, 27G, 30S, 31G, 32T, 33Y]mimylin]	56 pM	66 pM
